Target: microtubules (pig brain tubulin) (pig, UniProt P02550 1-451; Q767L7 1-444, Cy3 or Cy5 and biotin labels on a fraction of the tubulin | Cy3 or Cy5 and biotin labels on a fraction of the tubulin)
Sequence (P02550 other isoform, or with tags, fused parts or gaps, chain 1 of 2): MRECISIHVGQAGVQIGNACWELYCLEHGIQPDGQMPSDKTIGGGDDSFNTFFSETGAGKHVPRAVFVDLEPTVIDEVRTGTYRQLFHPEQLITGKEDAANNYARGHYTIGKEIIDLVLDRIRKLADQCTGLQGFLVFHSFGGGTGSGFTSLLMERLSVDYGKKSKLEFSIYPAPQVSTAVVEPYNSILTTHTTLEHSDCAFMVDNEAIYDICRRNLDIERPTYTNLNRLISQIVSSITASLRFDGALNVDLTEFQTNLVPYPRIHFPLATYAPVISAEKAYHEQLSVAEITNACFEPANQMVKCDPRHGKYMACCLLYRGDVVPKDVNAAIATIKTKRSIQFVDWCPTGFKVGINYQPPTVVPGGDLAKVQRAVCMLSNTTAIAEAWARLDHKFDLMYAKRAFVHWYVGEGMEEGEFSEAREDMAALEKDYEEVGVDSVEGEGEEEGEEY
Sequence (Q767L7 other isoform, or with tags, fused parts or gaps, chain 2 of 2): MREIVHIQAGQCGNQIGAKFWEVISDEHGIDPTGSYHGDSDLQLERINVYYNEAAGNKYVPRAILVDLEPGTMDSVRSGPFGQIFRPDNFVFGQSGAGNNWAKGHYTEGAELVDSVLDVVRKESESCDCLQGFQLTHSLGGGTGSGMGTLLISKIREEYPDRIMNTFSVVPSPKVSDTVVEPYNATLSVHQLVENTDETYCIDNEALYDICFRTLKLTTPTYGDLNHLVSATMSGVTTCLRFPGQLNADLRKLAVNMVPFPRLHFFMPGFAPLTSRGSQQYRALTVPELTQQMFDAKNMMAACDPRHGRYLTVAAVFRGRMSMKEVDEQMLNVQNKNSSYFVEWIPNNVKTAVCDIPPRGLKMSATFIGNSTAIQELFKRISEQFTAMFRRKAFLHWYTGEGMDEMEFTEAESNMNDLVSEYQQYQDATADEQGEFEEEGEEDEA

Kd: 0.279 µM
B1: NuMA Bonsai (other)
chain: MTLHATRGAALLSWVNSLHVADPVEAVLQLQDCSIFIKIIDRIHGTEEGQQILKQPVSERLDFVCSFLQKNRKHPSSPECLVSAQKVLEGSELELAKMTMLLLYHSTMSSKSPRDWEQFEYKIQAELAVILKFVLDHEDGLNLNEDLENFLQKAPVPSTCSSTFPEELSPPSHQAKREIRFLELQKVASSSSGNNFLSGSPASPMGDILQTPQFQMRRLKKQLADERSNRDELELELAENRKLLTEKDAQIAMMQQRIDRLALLNEKQAASPLEPKELEELRDKNESLTMRLHETLKQCQDLKTEKSQMDRKINQLSEENGDLSFKLREFASHLQQLQDALNELTEEHSKATQEWLEKQAQLEKELSAALQDKKCLEEKNEILQGKLSQLEEHLSQLQDNPPQEKGEVLGDVLQLETLKQEAATLAANNTQLQARVEMLETERGQQEAKLLAERGHFEEEKQQLSSLITDLQSSISNLSQAKEELEQASQAHGARLTAQVASLTSELTTLNATIQQQDQELAGLKQQAKEKQAQLAQTLQQQEQASQGLRHQVEQLSSSLKQKEQQLKEVAEKQEATRQDHAQQLATAAEEREASLRERDAALKQLEALEKEKAAKLEILQQQLQVANEARDSAQTSVTQAQREKAELSRKVEELQACVETARQEQHEAQAQVAELELQLRSEQQKATEKERVAQEKDQLQEQLQFQVATDALKSREPQAKPQLDLSIDSLDLSCEEGTPLSITSKLPRTQPDGTSVPGEPASPISQRLPPKVESLESLYFTPIPARSQAPLESSLDSLGDVFLDSGRKTRSARRRTTQIINITMTKKLDVEEPDSANSSFYSTRSAPASQASLRATSSTQSLARLGSPDYGNSALLSLPGYRPTTRSSARRSQAGVSSGAPPGRNSFYMGTCQDEPEQLDDWNRIAELQQRNRVCPPHLKTCYPLESRPSLSLGTITDEEMKTGDPQETLRRASMQPIQIAEGTGITTRQQRKRVSLEPHQGPGTPESKKATSCFPRPMTPRDRHEGRKQSTTEAQKKAAPASTKQADRRQSMAFSILNTPKKLGNSLLRRGASKKALSKASPNTRSGTRRSPRIATTTASAATAAAIGATPRAKGKAKH

From publication doi:10.1101/2024.11.26.625568 (2024)
